# From the nanobody polyreactivity screen of Harvey et al. (2022)
# Experiment: yeast display, Sf9 membrane polyspecificity reagent, FACS + sequencing; frameworks hold sequencing errors
# Outline: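 Nanobodies came from a synthetic yeast display library in Saccharomyces cerevisiae BJ5465, induced with galactose for 36–48 hours and stained for 1 hour at 4 °C with 10% biotinylated, detergent-solubilized Sf9 membrane reagent. Cells were enriched on streptavidin microbeads and then FACS-sorted, with low and high (top ~1%) gates set on anti-HA fluorescence for expression and streptavidin fluorescence for reagent binding. Each polyreactivity label reflects the gate a clone came from. Genes were amplified by colony PCR, sequenced by MiSeq 2 × 250 and filtered by CDR length.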
row,Sequence,polyreactivity (PSR sort gate)
1,QVQLVESGGGLVQAGGSLRLSCAASGRIFTHNAMGWYIQAPGKERELVAAITSGGRTTYADSVKGRFTISRENAKNTVYLQMISLKPVDTAVYYCAADDLLDYDYWGQGTQVTVSS,low polyreactivity
2,QVQLVESGGGLVQAGGSLRLSCAASGRIFTIYAMGWSRQAPGKERELVATISRRGGSTYYADSVKGRFTISRDNAKNTVYLKMNSLKPEDSAVYYFAADSVITWWAYYYWGQGTQVTVSS,high polyreactivity
3,QVQLVESGGGLVQAGGSLRLSCAASGRIFTIYAMGWYRQAPGKERELVARITRGTSTYADSVKGRFTISRDNAKNTVYLQMNSLKPEDTAVYYCAADPTDTSLGDYWGQGTQVTVSS,high polyreactivity
4,QVQLVESGGGLVQAGGSLRLSCAASGRIFTLYAMGWYRQAPGKERELVAAISYGGGGTYYADSVKGRFTISRDNAKNTVYLQMNRLKPEDSAVYFCATDDPLSQINEQGMDYWGQGTQVTVSS,low polyreactivity
5,QVQLVESGGGLVQAGGSLRLSCAASGRIFTNNAMGWYRQAPGKERELVAAITRGGTTNYADSVKGRFTISRDNAKNTVYLHMNSLKPEDTAVYFCARAGAHPWWSRSTMYYWGQGTQVTVSS,low polyreactivity
6,QVQLVESGGGLVQAGGSLRLSCAASGRIFTNYAMGWYREAPGKERELVAAINYSGGNTYYADSVKGRFTISRDNAKNTVYLQMNSLIPEDTAVYYCNAPILPRYRRYDYWGQGTQVTVSS,low polyreactivity
7,QVQLVESGGGLVQAGGSLRLSCAASGRIFTNYAMGWYRQAPGKERELVAAINWDGGSTYYADSVKGRFTISRDNAKNTVYLQMNSLKPEDTAVYYCAAQGGLSEFDYWGQGTQVTVSS,low polyreactivity
8,QVQLVESGGGLVQAGGSLRLSCAASGRIFTQNAMGWYRQAPGKERELVAAINYSGGRTYYADSVKGRFTISRDNAKNTVYLQMNSLKPEDTAVYYCAAEWYTRFYISYGYWGQGTQVTVSS,high polyreactivity
9,QVQLVESGGGLVQAGGSLRLSCAASGRIFTRYAMGWYRHAPGKERELVAAITASGGRTYYADSVKGRFTISRDNAKNTVYLQMNSLKPEDTAVYYCAATYHRYYETQDSYDYWGQGTQVTVSS,high polyreactivity
10,QVQLVESGGGLVQAGGSLRLSCAASGRIFTRYAMGWYRQAPGKERELVAAIDRGGSTYYADSVKGRFTISRDNAKNTVYLQMNSLKPEDTAVYYCAARIKAWGLEFYYWGQGTQVTVSS,high polyreactivity
11,QVQLVESGGGLVQAGGSLRLSCAASGRIFTRYAMGWYRQAPGKERELVAAISRGGARTYYADSVKGRFTISRDNAKNTVYLQMNSLKPEDTAVYYCARQRVKTDRISGYDYWGQGTQVTVSS,high polyreactivity
12,QVQLVESGGGLVQAGGSLRLSCAASGRIFTRYAMGWYRQAPGKERELVAVITRSGGSTYYADSVKGRFTISRDNAKNTVYLQMTSLKPEDTAVYYCAAKYYGEMYYWGQGTQVTVSS,low polyreactivity
13,QVQLVESGGGLVQAGGSLRLSCAASGRIFTRYVMGWYRPAPGKERELVAGINSGGRTNYADSVKGRFTISRDNAKNTVYLQMNSLKQVDTAVYYCAAGKGRPVGGRAYYYWGHGTQVTVSS,high polyreactivity
14,QVQLVESGGGLVQAGGSLRLSCAASGRIFTSNAMGWYRQAPGKERELVASITSSSSTNYADSVKGRFTLSRDNAKNTVYLQMNSLKPEDTAVYYCAAERVWPYGHDYWGQGTQVTVSS,low polyreactivity
15,QVQLVESGGGLVQAGGSLRLSCAASGRIFTSYAMGWYRQAPGKERELVASITSGGRTDYADSVKGRFTISRDNAKNTVYVQMNSLKPEDTAVYYCNVGTRRALYYPYRPGRYDYWGQGTQVTVSS,low polyreactivity
16,QVQLVESGGGLVQAGGSLRLSCAASGRIFTSYVMGWYRQAPGKERELVAAITRTGGSTYYADSVKGRFTISRDNAKNTVYLQMNSLKPEDTAVYYCNALTRRQKGGEGGGYWGQGTQVTVSS,high polyreactivity

row,Sequence,polyreactivity (PSR sort gate)
1,QVQLVESGGGLVQAGGSLRLSCAASGRIFTTNVMGWYRQAPGKERELVAAISWSGGNTYYADSVKGRFTISRDNAKNTVYLQMNSLKPEDTAVYYCNAVGTIREGDSWGQGTQVTVSS,low polyreactivity
2,QVQLVESGGGLVQAGGSLRLSCAASGRIFTYNAMGWYRQAPGKERELVASINLDGDSTYYADSVKGRFTISRDNAKKTVYLQMNSLKTEETAVYYCAVPGATSYFAYDSWGQGTQVTVSS,low polyreactivity
3,QVQLVESGGGLVQAGGSLRLSCAASGRIFTYNTMGWYRQAPGKERELVAAIRTGGSTNYADSVKGRFTISRDNAKNTVYLQMNSLKPEDTAVYYCNTVRHSSSVYWYDYWGQGTQVTVSS,low polyreactivity
4,QVQLVESGGGLVQAGGSLRLSCAASGRIFTYNTMGWYRQAPGKERELVAAISGSGGITYYADSVKGRFTISRDNAKNTVYLQMNSLKPEDTAVYYCNTVPLYVSRYPYDYWGQGTQVTVSS,low polyreactivity
5,QVQLVESGGGLVQAGGSLRLSCAASGRIFTYNTMGWYRQAPGKERELVAAITSGGRTYYADSVKGRFTISRDNAKNTVYLQMNSLKPEDTAVYYCAAGRSRFVTRYDYWGQGTQVTVSS,high polyreactivity
6,QVQLVESGGGLVQAGGSLRLSCAASGRIFTYNTMGWYRQSPGKEREFVASITYSGSSTYYADSVKGRFTISRDNAKNTVYLQMNSLKPEDTAVYYCATRYGYSDGDYWGHGTQVTVSS,low polyreactivity
7,QVQLVESGGGLVQAGGSLRLSCAASGRIFTYYAMGWFRQAPGKERELVAAISFRGSSTYYADSVKGRVTLSRDNAKNTVYLQRNSLKPEDTAVYYCAAERIARPTFDYWGQGTQVTVSS,low polyreactivity
8,QVQLVESGGGLVQAGGSLRLSCAASGRIFTYYGMGWYRQAPGKERELVAAISWSGGSTYYADSVKGRFTISRDNAKNTVYLQMNSLKPEDTAVYYCNAASRYGGDYWGQGTQVTVSS,high polyreactivity
9,QVQLVESGGGLVQAGGSLRLSCAASGRIFTYYTMGGYRQAPGKERELVATINSSGGSTYYADSVKGRFTISRDNAKNTVYLQMNRLKPEDTAVYYCNDAYKSQVRYRRYNYWGQGTQVTVSS,high polyreactivity
10,QVQLVESGGGLVQAGGSLRLSCAASGRIFVDNAMGWYRQAPGKERELVAAITRGGSTYADSVKGRFTISRDNAQNTVYLQMISLKPEDTAVYYCAADLWSVPFTVYTFGIFYYWGQGTQVTVSS,low polyreactivity
11,QVQLVESGGGLVQAGGSLRLSCAASGRIFVDYAMGWYRQAPGKERELVAAITRSGDRTYYADSVKGRFTISRDNAKNTVYLQMNSLKPEDTAVYYCATDYPGYDWGQGTQVTVSS,low polyreactivity
12,QVQLVESGGGLVQAGGSLRLSCAASGRIFVEYAMGWYRQAPGKERELVAAINSGGSTNYADSVKGRFTISRDNAKNTVYLQMNSLKPEDTAVYYCNKDTLVYGYVQDYEYWGQGTQVTVSS,low polyreactivity
13,QVQLVESGGGLVQAGGSLRLSCAASGRIFVGNTMGWYRQAPGKDRELVAAISWRGRTSYADSVKGRFTISRDNAKNTVYLQMNSLKPEDTAVYYCNAEHAGASRYYYIANWMDYWGQGTQVTVSS,low polyreactivity
14,QVQLVESGGGLVQAGGSLRLSCAASGRIFVGYAMGLYRQAPGKEREFVATITFSGSSTYYADSVKGRFTISRDNAKNTVYIQMNSLKPEDTAVYYCAVTLEDYTYVYWGQGTQVTVSS,low polyreactivity
15,QVQLVESGGGLVQAGGSLRLSCAASGRIFVGYAMGWYRQAPGKERELVAAINRSGSSKYYADSVKGRFTISRDNAKNTVYLQMNSLKTEDTAVYYCNARSGNRYGPRYDYWGQGTQVTVSS,high polyreactivity
16,QVQLVESGGGLVQAGGSLRLSCAASGRIFVGYAMGWYRQAPGKERELVAAINRSGSSTYYADSVKGRFTISRDNAKNTVYLQMNSLKPEDSAVYYCNARAPSYYRYRASSAYDYWGQGTQVTVSS,high polyreactivity
